Data on 12 sequences can be found in a protein production outcome set (Wang et al. 2014).
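Also: failed if final PepcDB status was selected cloned or expressed and not failed if soluble or beyond.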

This series can be described thus: label from the status in PepcDB records.
Turning to “MRETSNPVFRSLPKQRGGYAQFGTGTAQQGFPADPYLAPYREAKATRPLTIDDVVTKTGLTLAMLAGTAVVSYFLVASNVALAMPLTLVGALGGLALVLVATFGRKQDNPAIVLSYAALEGLFLGAISFVLANFTVASANAGVLIGEAILGTMGVFFGMLVVYKTGAIRVTPKFTRMVVAALFGVLVLMLGNLVLAMFNVGGGEGLGLRSPGPLGIIFSLVCIGIAAFSFLIDFDAADQMIRAGAPEKAAWGVALGLTVTLVWLYIEILRLLSYLQNE”, the protein production result was “failed”.
The same measure for “MFELFQYDFMRNALLAATAISIFSPLLGVFLVLRRQSLMSDTLSHVSLAGVAFGVLLSWNPTITTLITVVIAAVFLEYLRTIYHNYMEIATAILMSAGLAIALLILNSSKGATSVSLEQYLFGSIITISLSQVIMLFVLAAVVLLGFILFLRPLYVMTFDEDTAFVDGLPVRWISIAFNIVTGVAIALMIPAAGALLVSAIMVLPASIAMRLGKSFKAVLFISAIVSFIGLNAGLIASYYMDAPASAAITLIFIVLFLVTSSLKRLIRA”: “failed”; for “MFDQYRKTILAGAVALTCGLTAASTFAAGFQPAQPAGKLGAVVVDPYGNAPLTALVELDSHIISDVKVTVHGKGEKGVPVTYTVGKESLETYDGIPIFGLYQKFANNVTVEYKENGKAMKDDYVVQTSAIVNHYMDNRSISDLQQTKVIKVAPGFEDRLYLVNTHTFTPQGAEFHWHGEKDKNAGILDAGPAGGALPFDIAPYTFVVDTQGEYRWWLDQDTFYNGHDMNINKRGYLMGIRETPRGTFTAVQGQHWYEFDMMGQVLADHKLPRGFLDASHESIETVNGTVLLRVGKRDYRKEDGIHVHTIRDQIIEVDKSGRVVDVWDLTKILDPMRDALLGALDAGAVCVNVDLAHAGQQAKLEPDTPYGDALGVGAGRNWAHVNSIAYDAKDDSIILSSRHQGIVKIGRDKQVKWILAPSKGWNKQLASKLLKPVDDHGKPLTCDENGKCKDTDFDFTYTQHTAWLSSKGTLTVFDNGDGRGLEQPALPTMKYSRFVEYKIDEKKGTVQQVWEYGKERGYDFYSPITSVVEYQKDRDTMFGFGGSINLFDVGKPTVGKLNEIDYKTKEVKVEIDVLSDKPNQTHYRALLVHPTQMFK”: “failed”.
With “MMESGAGFVAMEERISPGSFFQYPLSGFRASPNRSPCPPSDRERYLTELLQERQKLGPFLQVMPNCCRLLNHEIRRVSSFPDLDRYEHGSPFRSLGQPTNGKLDLEGWSMMQAEVSHC” the entry was “failed”.
With “MKVKKWVTQDFPMVEESATVRECLHRMRQYQTNECIVKDREGHFRGVVNKEDLLDLDLDSSVFNKVSLPDFFVHEEDNITHALLLFLEHQEPYLPVVDEEMRLKGAVSLHDFLEALIEALAMDVPGIRFSVLLEDKPGELRKVVDALALSNINILSVITTRSGDGKREVLIKVDAVDEGTLIKLFESLGIKIESIEKEEGF” the entry was “not failed”.
In the case of “MHFRLILSMIVVTHTAVVQVLIHMEWIADPSIWAGLVTLVVIELVLGIDNLVFIAILAEKLPPAQRDRARITGLMLAMVMRLLLLASISWLVTLTKPLIVFHDFSFSARDLIMLFGGLFLLFKATVELNERLEGKDSDNPTQRKGAKFWAVVAQIVVLDAIFSLDSVITAVGMVDHLAVMMAAVVIAISLMLMASKALTRFVNSHPTIVILCLSFLLMIGFSLIAEGFSFIIPKGYLYAAIGFSVMIEALNQLAQFNRRRFLSANMTLRQRTTEAVMNLLSGQKEKAELDADTASLVADQDQHPLFNPQERLMIERVLNLNQRSVSSIMTSRHDIERINLSAPEEEIRSLVEKNQHTRLVVTGGKDNEDLLGVVHVIDLLQQSLRQEPLDLQALVRQPLVFPEGLPLLSALEQFRQARTHFAFVVDEFGSVEGIVTLSDVMETIAGNLPNEVEEIDARHDIQHHQDGSWTVNGHMPLEDLVQYVPLPLDDKREYHTVAGLLMEYLQHVPQVGETIEIDGYTLRTLQVDSHRVQKVQIVPPVKQDELDYEV”, the protein production result is listed as “failed”.
The same measure for “MKHLTVYFLLALQGVLFSFSLSAATPQNAIAYHDGNVRFSVLTDGVIRMEWSPSGSFTDDPSFVAIHRNLPVPKYTVQNKNATVVISTARMKLKYKKGQGPFTKDNLTITSAKGMFPFQWTPGTIQKGNLKGTDRTLDGFEGDHNIYSHQDMKLEDGLLSTDGWTLIDDSKNFLFDNSEWAWVKEREHKDGQDWYFMAYGHDYKAALKDFTVFAGKVPLPPRYAFGYWWSRYWSYSDKEMRQLVDNFHTYNIPLDVLVVDMDWHYTDPGFGGWTGWTWNRRLFPDPAKFLGYLKSNDLKITLNLHPADGVAPYEEKYPEMAQWMGVDTAKQERIPWVVSDKRFINGMFNKVLRPMEKQGVDFWWLDWQQWMYDKKVDSLSNTWWINYVFFSDMERNRDTRPMLYHRWGGLGNHRYQIGFSGDAVISWKSLEFQPYFTNCASNVLYGYWSHDIGGHMFKGGDKEILDPELFTRWMQYGALTPVMRTHSTKNSVLNKELWNFKGDYFEALRNSILFRYQLAPYIYTMARETYDNGISICRPMYYDYPEAKEAYDFKSEYMFGDQILVAPITTPMQNGLSTVKVWLPEGNDWFEWTTGTLLKGGQIIERSFTLTEYPVYVKAGSVLPLYNRVKNLNSNSEEIIVNIFPGENGSFTFYEDNGNDKYYANEYARTRMYTERKENHLTVTVGPRQGKYRNMPTDRQFKIKVLGSAIPETITINGNRAEYEYIGDELALLITIPQTACDQEKTIEIQYSTSIPELNDGIVSQFKRFSKAITALKYRDAGIVLTPTMGATEATSIALTYSPERFNELIETFKRNYSQMPEMLKEQKLNEANSQWFMKAIGWKK”: “failed”.
The same measure for “MYLLTFKGLIYSAGGTWLNKGNLMYFGSLIFLFLVVFLIFSEQRTEKTSGLEKVSVQEAKEMIEKGDVFVLDVRTPDEFNSSHIKGATLIPLSNAFGSNLSSESLLKAHIDEVPKEKILVYCRTGRRSDTAGRMLVNAGYTQVYNMVGGIIAWTDAGYPVVSSEDTESEGSHN”: “failed”; for “MEQYSEACIEACIDCMKACNHCFTKCLEESVQHHLSGCIRLDRECADICALAVKAMQTDSPFMKEICALCADICEACGTECGKHDHDHCQACAKACFTCAEQCRSMAALEHHHHHH”: “failed”.
Turning to “MTRFIHTADWQIGRQYGQFDSDDAAVLAEARLEPVARIAAQASELAVDAVLVAGDVFDTQSVSDRTIRRLFGAMQAYEGPWVLIAGNHDAALADSVWSRARRLECIGTNVHVPQDTAAVELPLAGLAVLAAPLTQRHTYDDVTAAFDTMDSAAGLVRVGLAHGSVADRLPEQADAANPIAPDRAQRARLDYLALGDWHGCLRIDERTWYAGTPEPDRFRGNAPGYALLVEVAAPGAPPQVRQLEVGKYRWSHWVERLDLASDAEDLGHRLAGLQAGDVLRLELHGALSLARRWDALRRDVERAAARVRALVADSAGLVLEPDAADLAALSVDGYVGAAAARLQAMQGDGAQAAAARVALRLLLQYQRELAEGAS”, the protein production result was “failed”.
The same measure for “MLFNKMKNYKGFTAVKELWLLNLFILSVFTLSFSVSAASNDVSINNNELIGISYNTIQSDQIVVVFSFTKNITSLPIVKTSMTPAFVEVTFDANTYGKDLTETLINHAGIKGINLDAKTGKVVALISLEKLAVFDVSLNNEKEFSITFNYGESAEIVETLSPAGDDFINSIESIDFRLNGDNEGQILVYLKDSMLAADVNDKLGKLNVEFHNTEIIDDLLYKLDVTDFGTLVTSIETFKEGRNARLVIDVESGFIFTQKQEENLFILTVKKKPEKAPTYLGDTDDFTGRSISLSFQDIPVRTVLQIIADYNEFNLIISDTVTGNITLRLDGVPWDQALSIILKVKGLDKRMQGNILMVAPSDELAAREAQSLQAKQQVEELATLYSEYLQINYAKAAEFSELIKNEDTSILSDRGSVSVDERTNTLLIRDTAKSIEDIKRMITILDVPVRQVVIEARMVTVKDNMNEELGIRWGVTNTDGEFATSGSIEGASSANGTRGVTTPGVGQVPTIGDGLNVNLPVANAAGTIAFQVARLANGTILDLELSALEKENKGEVIASPRITTANQKEAYIEQGVEIPYQEAASSGATATQFKKAVLSLTVTPHITPDDKIILDLVVTQDTISDITSGFAPAIDTQRIGTQVLVNNGETIVLGGIYQQAIISTVSKIPILGDIPYLGWLFRNSSQLNEKKELLIFVTPRIVTEHF”: “failed”; for “MNTTQGEYTTTAKWLHWLMATLIALAWLIGFYVSDLPKGPEKAAIMAWHKGLGTAVLALITVRLAWRLLHPPPRLPDTLSPGLQRAAHSAHWTLYGLMIAQPLSGWAVSSANGYPVKLFGLITLPALVEKNEVLAQTFVEIHEFLAWGLALLVVGHVVMAIKHHHVDRNGILHRMLPGRRPTSD”: “failed”.
